Experimental findings from article PMC5561129 are described below.

The assay addresses full-length 3xflag-LRRK1 (leucine-rich repeat kinase 1) (human) (UniProt Q38SD2). Nature of the assay: cryo-EM structure; single particle cryo-EM of purified 3xflag-LRRK1 eluted in Tris buffer at pH 7.4 with 0.02% Triton X-100; thin carbon film on Quantifoil grids; EMAN2 2D classes and 3D reconstruction.

With “full-length 3xflag-LRRK1 (leucine-rich repeat kinase 1), Q38SD2 1-2015”, the stoichiometry N was 2.

As usually defined, the stoichiometry N is a count of units in the complex or per binding partner.
